{"source": "patent US20260069728A1", "about": "“MULTI-TARGETING COMPOUND AND USE THEREOF” (Chengdu Shetai Medical Technology Co., Ltd., priority 2023, published 2026)", "key": {"[1]": {"assay": "Competitive experiment of radioligand against endogenous free amino acids (histidine, cysteine)", "format": "physicochemical", "settings": "37° C., 2 hours", "experimental": "To an EP tube containing 150 μL of PBS buffer, 150 μL of H2O, and 50 μL of ^68Ga-SDYD01 was added 50 μL of cysteine hydrochloride solution (10 mM) or histidine solution (10 mM). The mixture was vortexed and incubated at 37° C. for 2 hours, after which samples were taken for radio-HPLC analysis.\nThis study utilized different concentrations of histidine and cysteine solutions to investigate whether histidine (or cysteine) competes with ^68Ga-SDYD01 for metal chelation.\nTo an EP tube containing 150 μL of PBS buffer, 150 μL of H2O, and 50 μL of ^68Ga-SDYD02 was added 50 μL of cysteine hydrochloride solution (10 mM) or histidine solution (10 mM). The mixture was vortexed and incubated at 37° C. for 2 hours, after which samples were taken for radio-HPLC analysis.\nThis study utilized different concentrations of histidine and cysteine solutions to investigate whether histidine (or cysteine) competes with ^68Ga-SDYD02 for metal chelation.\nTo an EP tube containing 150 μL of PBS buffer, 150 μL of H2O, and 50 μL of ^68Ga-SDYD05 was added 50 μL of cysteine hydrochloride solution (10 mM) or histidine solution (10 mM). The mixture was vortexed and incubated at 37° C. for 2 hours, after which samples were taken for radio-HPLC analysis. This study utilized different concentrations of histidine and cysteine solutions to investigate whether histidine (or cysteine) competes with ^68Ga-SDYD05 for metal chelation.\nTo an EP tube containing 150 μL of PBS buffer, 150 μL of H2O, and 50 μL of ^68Ga-SDYD06 was added 50 μL of cysteine hydrochloride solution (10 mM) or histidine solution (10 mM). The mixture was vortexed and incubated at 37° C. for 2 hours, after which samples were taken for radio-HPLC analysis. This study utilized different concentrations of histidine and cysteine solutions to investigate whether histidine (or cysteine) competes with ^68Ga-SDYD06 for metal chelation."}, "[2]": {"tested_on": "SUM149PT human breast cancer cell line", "assay": "Cell uptake and inhibition assay, SUM149PT", "format": "cell-based", "experimental": "The cell lines involved in the cell experiments in the test examples include: SUM149PT human breast cancer cell line, HUTU-80 human duodenal adenocarcinoma cell line, and U-118 MG human brain astrocytoma/glioblastoma cell line.\nSUM149PT: Complete medium was formulated using DMEM high-glucose medium, 10% FBS, and a penicillin-streptomycin solution. The cells were cultured in a constant temperature incubator at 37° C. with 5% CO2. The culture medium was regularly replaced, and the cells were passaged. The culture medium was generally changed every 2 to 3 days. The growth of the tumor cells was observed daily under a microscope, including monitoring cell growth status, checking for adherence, examining cell morphology for any abnormalities, checking for contamination, and observing medium color for any abnormalities. Cells were passaged when they reached 80-90% confluence.\nWhen cell confluence in the culture flask reached 80%, the cells were digested and centrifuged, and the supernatant was removed. An appropriate amount of medium was added to dilute so that each well contained 500 μL of medium for plating. After thorough mixing by pipetting, the cell suspension was seeded into a 24-well plate at a density of 5×10^5 cells per well. The plate was then placed into the incubator for continued growth. The cells were ready for cellular experiments when they reached 80% confluence.\n(1) The cell uptake assay established four incubation time points: 15, 30, 60, and 120 minutes, respectively. For each time point, four groups were set up: non-inhibition group, a first single inhibition group (FAP single inhibition), a second single inhibition group (CXCR4/GRPR/αvβ3 single inhibition), and a dual inhibition group (FAP inhibitor+CXCR4/GRPR/αvβ3 inhibitor). Each group at each time point was set up with 3 triplicate wells.\n(2) Cells were plated into a 24-well plate according to the cell plating procedure described above.\n(3) The original culture medium was removed from the 24-well plate. Then, 400 μL of 100 mg/mL skimmed milk solution was added to each well for blocking for one hour. After removing the skimmed milk solution, each of the wells was washed three times by adding 400 μL of PBS solution. Subsequently, 146 μL of FBS-free medium was added to each well. Next, the non-inhibition group received 4 μL of cold PBS per well, while the first single inhibition group, the second single inhibition group, and the dual inhibition group received the following additions per well according to Table 3: 2 μL of non-radiolabeled first single inhibitor solution and 2 μL of cold PBS: 2 μL of non-radiolabeled second single inhibitor solution and 2 μL of cold PBS; 2 μL of non-radiolabeled first single inhibitor solution (10 mM) and 2 μL of non-radiolabeled second single inhibitor solution (10 mM). The plate was incubated at room temperature for one hour.\n(4) The ^68Ga- and ^177Lu-labeled radioactive ligands were formulated by adding FBS-free medium to achieve a radioligand system concentration of 20 nM. Then, 50 μL of this radioligand system was added to each well. Each group was incubated according to the designated time points: 15, 30, 60, and 120 minutes.\n(5) After the incubation was complete, the supernatant was removed, and the wells were washed three times with 400 μL of PBS solution. Then, 200 μL of 1 M NaOH solution was added to each well for cell lysis. […] Each well was then washed once with 400 μL of PBS solution, and this wash solution was also added to the corresponding radioimmunoassay tubes.\n(6) The radioactivity in the cells was measured using a γ counter. A bar graph was plotted using GraphPad Prism software. The inhibition rate for each inhibition group was calculated as follows: Inhibition Rate (%)=(1−[Radioactive Count of the Inhibition Group]/[Radioactive Count of the Non-inhibition Group])×100%. […]"}}, "note": "*1 amine or outer side, *2 acyl side, *3 side chain or, on linkers, in order; H or OH if unused. Where a SMILES comes first, the peptide text is derived from it. Bridges are numbered along the chain shown (N, C = ends). [ ]: non-standard residue; d: D form. The star is where a group is joined. X1 = N#C[C@@H]1CC(F)(F)CN1C(=O)CNC(=O)c1ccnc2ccc(OCCCN3CCN(*)CC3)cc12; DOTA = O=C(O)CN1CCN(CC(=O)O)CCN(CC(=O)*)CCN(CC(=O)O)CC1; 2Nal = N[C@@H](Cc1ccc2ccccc2c1)C(=O)O; Cit = NC(=O)NCCC[C@H](N)C(=O)O; Suc = O=C(CCC(=O)[*:2])[*:1]; AEEA = NCCOCCOCC(=O)O", "data": [{"compound": "N#C[C@@H]1CC(F)(F)CN1C(=O)CNC(=O)c1ccnc2ccc(OCCCN3CCN(C(=O)CCC(=O)N[C@@H](CCCCNC(=O)CN4CCN(CC(=O)O)CCN(CC(=O)O)CCN(CC(=O)O)CC4)C(=O)NCCOCCOCC(=O)NCCOCCOCC(=O)N[C@@H](CCCNC(=N)N)C(=O)N[C@@H](CCCNC(=N)N)C(=O)N[C@@H](Cc4ccc5ccccc5c4)C(=O)N[C@H]4CSSC[C@@H](C(=O)N[C@@H](CCCNC(=N)N)C(N)=O)NC(=O)[C@H](CCCNC(N)=O)NC(=O)[C@H](CCCNC(=N)N)NC(=O)[C@H](Cc5ccc(O)cc5)NC(=O)[C@@H]5CCCN5C(=O)[C@H](CCCCN)NC(=O)[C@H](CCCCN)NC(=O)[C@H](CCCNC(N)=O)NC(=O)[C@H](Cc5ccc(O)cc5)NC4=O)CC3)cc12", "note": "[^68Ga-SDYD01, metal not drawn] ({X1-Suc}-K(DOTA)[AEEA][AEEA]RR[2Nal]CY[Cit]KKPYR[Cit]CR-NH2; disulfide 7-16)", "values": [{"measurement": "competitive chelation in the presence of histidine and cysteine (in words)", "setting": "[1]", "result": "did not undergo competitive chelation"}, {"measurement": "radiochemical purity after incubation with cysteine", "setting": "[1]; cysteine hydrochloride solution (10 mM)", "result": 93, "unit": "%"}, {"measurement": "radiochemical purity after incubation with histidine", "setting": "[1]; histidine solution (10 mM)", "result": 93, "unit": "%"}, {"measurement": "cell uptake, comparison of non-inhibition, FAP single, CXCR4 single and dual inhibition groups (in words)", "setting": "[2]; FAPI-04 and T140 as inhibitors", "result": "dual inhibition group exhibited the lowest uptake"}, {"measurement": "cell uptake over incubation time (in words)", "setting": "[2]; non-inhibition group, 15-120 minutes", "result": "slowly increased and reached a plateau from 30 to 120 minutes"}]}]}
